For the test, the target named is T1, Lectin-like oxidized low density lipoprotein receptor-1 (LOX1), expressed on cells (UniProt P78380 1-273, limits assumed).
T1 construct: whole, on cells; Also used as the target for the functional rows, where it is endogenous LOX1 on patient-derived pancreatic tumor cells, cancer cell lines and cardiomyocytes; also called LOX1-expressing cells; cells overexpressing LOX1
The test is described as follows: Western blot of lysates of human aortic endothelial cells, membrane probed with LX5140110 at 1 µg/ml and anti-human-Fc-HRP. From the text: Inhibition of LOX1 can reduce chemotherapy-induced cardiomyocyte damage. While the combination of chemotherapy and anti-CSC targeted therapies will likely be useful in the clinic, it is known that many chemotherapies have unintended harmful side effects in addition to anti-tumor activity. One such side effect is cardiac damage that can lead to cardiomyocyte death and heart failure. […] First, we examined the expression of LOX1 in response to doxorobucin treatment in human aortic endothelial cells (HAEC) and embryonic stem cell derived cardiomyocytes. Oxidized LDL (Ox-LDL) is a conventional ligand of LOX1 and was added as a control, since previous reports show an increase of LOX1 in response to Ox-LDL in rat cardiac muscle cells (Spallarossa et al., (2005)). Forty-thousand cells were plated in a 96-well plate and treated with media alone or media containing 5 μM doxorubicin for 24 hours. The cells were then scraped and lysed with 1× RIPA buffer containing protease inhibitors on ice for 1 h. Loading buffer was added to each sample followed by heating for 10 min at 90° C. Twelve microliters of sample was loaded per lane in a 4-12% bis-tris gradient gel. The gels were run for 40 min at 200V in MOPS buffer. The proteins were transferred onto a nitrocellulose membrane using iBlot. The membrane was blocked overnight with casein solution. […]
For orientation: A western blot detects proteins with antibodies after separation by electrophoresis.

B1: LX5140110 (antibody, V domains shown)
VH: QVQLVQSGAEVKKPGASVKVSCKVSGYTLTELSMHWVRQAPGKGLEWMGGFDPEDFKYHTHQKFQGRVTMTEDTSTDTAYMELSSLRSEDTAVYYCALVWGTQGKGVRGWDYYYGMDVWGQGTTVTVSS
VL: QSVVTQPPSVSGAPGQRVTISCTGSSSNIGAGYDVHWYQQLPGTAPKLLIYGNSNRPSGVPDRFSGSKSGTSASLAITGLQAEDEADYYCQSYDSSLSGWVFGGGTKLTVL
notes: Monoclonal antibody; It was detected with an anti-human-Fc antibody, and the controls were non-specific IgG1; also called LOX1-specific monoclonal antibody; LOX1 monoclonal antibody
In the case of B1, the binding result is given as “binds”.

(Values after patent publication US20220195037A1 (AstraZeneca / MedImmune, published 2022).)
